# System: MS2 coat protein
# Assay: apparent KD of MS2 coat protein; higher = weaker reporter binding
# Settings: Eterna round: R107; input ligand: arginine 13.2 mM
# Outline: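 Each design's apparent KD comes from the median of binding-curve fits to its normalised clusters. Those clusters carried RNA switches transcribed on-chip from Illumina sequencing clusters. SNAP-549-labelled MS2 coat protein was titrated onto them in twofold steps (0.7 or 1.5 nM to 3 µM; per step 0.8–1.5 h down to 10–20 min). Conditions were 100 mM Tris-HCl pH 7.5, 80 mM KCl, 4 mM MgCl2, without or with constant ligand.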
row,Sequence,apparent KD of MS2 coat protein [nM]
1,GGUGUAAUUGACUCUUUGUUUUAUUUGUAACGAGGACCGGUACGGCCGCCACUCGAUAUUCACAUGAGGAUCACCCAUGUUAGCU [JR_ExcTryptoA_Sub006],19.1
2,AGCAUUGUAACAGAUACCAGACUUUUAAUGCCUCUAAUUACAUGAGGAUCACCCAUGUUUGUCCCUUGGCAGCUGUUAUGAUGCA [JR_ExcTheophyB_Sub009],84.1
3,UGUAACAUGAGGAUCACCCAUGUAAGUGAUACCAGAUAAGUAGUAGUCCCUUGGCAGCAUAUUGGGAAAGUGUAUAGUGUAUAUG [Same State - Theophylline A (Freestyle 4)],48.9
4,AUUAUAGUUUAUAACGAAGUUGAUACAGAAGGAGCGGGAGUAAUCUCAGGUAGGUCGCUGAUAAUACAUGAGGAUCACCCAUGUG [#15 Same State - Arginine A],17.1
5,AGUGUCGGAGCGGCCGCCACUAGCACAUCUGGUCGCCAUGGCAACAUGAGGAUCACCCAUGUUGCUAGGACCGGGCUCAAUAUUU [Maengele],8.37
6,UGUAUGUGAUUUGAUACCAGACCAGCUGGUGGUACCUGAGGAUCACCCGGGUAGGUUUGGGUCCCUUGGCAGCAAAUCGCAUACU [SS Theo B #24 Ms8],48.6
7,UCGCCCAGGUAGGAUUGAUGGGAUAUGGAAGGAGCGCUGAUGCCAGCAGGUAGGUCGCCAACGGACAUGAGGAUCACCCAUGUAC [Same State - Arginine A (Freestyle 5)],16.5
8,AGCGACAUGAGGAUCACCCAUGUACAUUCCCGAGGACCGGUACGGCCGCCACUCGAUGGAAGUGGUAGCAGCUUGGAUGGGCCUA [theeternabot_sameState_MS2_Trp_A_23],14.5
9,UGUCGGCCGCCAGGAAAUGGUGGCCGACAUCGAGGACCGGUACGGCCGCCACUCGGUCGUACAUGAGGAUCACCCAUGUCGGUGA [SameState-Tryptophan_A Attempt #10 (HarryS)],72.9
10,UAAAACAUGAGGAUCACCCAUGUAAAUGAUACCAGAGUGAUGAUCCUCCCUUGGCAGCAUAACGCUGAUUGGAAACAAUCAGCGA [Mat - Same State Theophlline A - Mod of Eli - D23],28.8
11,GGAUAUAGGGAACCGUAUCCGAAACCUGAAGGAGCGGCCGAAAGGCCAGGUAGGUCGCGGGAACAUGAGGAUCACCCAUGUAUUC [dancer],31.1
12,GGCACAUAGUCGGCCGCCACUAGUGGGAAAUGGGAGAACAUGAGGAUCACCCAUGUAUAAUAGCCUAGGACCGGGACUAUGUGCC [Elk],64.2
13,AGUCUUAUAGGAAGGAGCGCAUACUUCACAUGAGGAUCACCCAUGUCAAGGAGUGAGUCAAUGCAGGUAGGUCGCCUAACUAAGA [Same State - Arginine B (Freestyle 10)],38.6
14,AGCAACAAGUCGGCCGCCACUCAUAUUACAUGAGGAUCACCCAUGUUUACAUCAAGGUCAUAAUAGAGGACCGGGACAGUUGCAU [JR_SSTryptoB_Sub017],24.5
15,GUACAUGAGGAUCACCCAUGUAUAGUUGAAGGAGCGACCAGAGGGUCAGGUAGGUCGCAGCACAUGAGGUAAGGCCGUGUAUGCU [#1 Exclusion - Arginine A Attempt #20 (Inspired by Pi)],17.2
16,GGCUUCAACUCGGCCGCCACUGGUGAUCCUCAUGUACAUGAGGAUCACCCAUGUACAUGAGACUACAGGACCGGGAGAUCAGCAA [Tryptophan B],10.5
17,CCCAAAUAGAUCAAAGGAAUUAUACUCGAAGGAGCGUCAUAGUAGGCAGGUAGGUCGCGAGACAUGAGGAUCACCCAUGUAGAGA [sssmullin],33.3
18,AAUUCAGGGUCGGCCGCCACUGGUAUGGCGAGUCCUCGAACUUACAUGAGGAUCACCCAUGUGAACAGGACCGGGACAGCAUGGG [Exclusion Tryptophan B GF 22],57.8
19,AAAUAGGUAGGAGAUACCAGAUAGGUUAACAUGAGGAUCACCCAUGUGUAUGCACUUAGUGUCCCUUGGCAGCUCCUGGAUCUGG [#19 Same State - Theophylline B],33.3
20,AAAACGCAACUCGAUACCAGUACACUGAGUCUUCGCCACGACAUGAGGAUCACCCAUGUGUACCCUUGGCAGCGACAGAGCCACA [theeternabot_exclusion_MS2_Theo_B_42],43.4
21,ACAUGAGGAUCACCCAUGUGCAUGAUGAUCCGAGGACCGGUACGGCCGCCACUCGUCAUGAUGAUCUUUCAUGUUUGUCGCGCGC [Flamini II],62.6
22,AGCGUAUAGACGGAUACCAGCGCCAAUUAACAUGAGGAUCACCCAUGUAGUGUGGGUGGACGCCCUUGGCAGCCGAGUAUAGGUA [Exclusion - Theophylline B / A],57.3
23,UAUCGGCACUGAAGGAGCGAGUUGACAAACAUGAGGAUCACCCAUGUUAUGGGUUGUUAAUCUCAGGUAGGUCGCAGUUGUCGCA [Same State Arginine B GF 19],221
24,UUUUACGGCGAUCUGGGUUUACCAGAUCGGCGAGGACCGGUACGGCCGCCACUCGUGUUUCUUUGACAUGAGGAUCACCCAUGUA [whbob_SS_trypto A_f1],28.9
25,CCACAUGAGGAUCACCCAUGUAUAGUUGAAGGAGCGAUCAUUAGGUCAGGUAGGUCGCAGCACAUGAGGAUCACCCAUGUCGAAA [DOUBLE!!! :-D #3],41.2
26,AGCCUCAUACAUGAGGAUCACCCAUGUGAUACCAGUCAGGAAACUGACCCUUGGCAGCGCAUGAGGAUCACCCAUGCGCGAGGCA [Omei Theo A Exc A v1],40.1
27,UGCGAUGAACCUGAUACCAGAUGUAUUUGCUCCUCGGACAACAUGAGGAUCACCCAUGUCAUCCCUUGGCAGCAGGAGCGAAAGC [theeternabot_exclusion_MS2_Theo_B_21],12.8
28,AUAUUUAACGGAAGGAGCGGGAAAUAAUCAUGAUGACAUGAGGAUCACCCAUGUCUUAAAACCCAGGUAGGUCGCCGAAUAAUAA [Same State - Arginine B],12.1

# Same assay, conditions: Eterna round: R107; input ligand: none
row,Sequence,apparent KD of MS2 coat protein [nM]
1,AUUAUAGUUUAUAACGAAGUUGAUACAGAAGGAGCGGGAGUAAUCUCAGGUAGGUCGCUGAUAAUACAUGAGGAUCACCCAUGUG [#15 Same State - Arginine A],19
2,UGUAUGUGAUUUGAUACCAGACCAGCUGGUGGUACCUGAGGAUCACCCGGGUAGGUUUGGGUCCCUUGGCAGCAAAUCGCAUACU [SS Theo B #24 Ms8],48.6
3,UCGCCCAGGUAGGAUUGAUGGGAUAUGGAAGGAGCGCUGAUGCCAGCAGGUAGGUCGCCAACGGACAUGAGGAUCACCCAUGUAC [Same State - Arginine A (Freestyle 5)],18.7
4,UGUCGGCCGCCAGGAAAUGGUGGCCGACAUCGAGGACCGGUACGGCCGCCACUCGGUCGUACAUGAGGAUCACCCAUGUCGGUGA [SameState-Tryptophan_A Attempt #10 (HarryS)],496
5,GGAUAUAGGGAACCGUAUCCGAAACCUGAAGGAGCGGCCGAAAGGCCAGGUAGGUCGCGGGAACAUGAGGAUCACCCAUGUAUUC [dancer],57.3
6,GGCACAUAGUCGGCCGCCACUAGUGGGAAAUGGGAGAACAUGAGGAUCACCCAUGUAUAAUAGCCUAGGACCGGGACUAUGUGCC [Elk],188
7,AGUCUUAUAGGAAGGAGCGCAUACUUCACAUGAGGAUCACCCAUGUCAAGGAGUGAGUCAAUGCAGGUAGGUCGCCUAACUAAGA [Same State - Arginine B (Freestyle 10)],108
8,GUACAUGAGGAUCACCCAUGUAUAGUUGAAGGAGCGACCAGAGGGUCAGGUAGGUCGCAGCACAUGAGGUAAGGCCGUGUAUGCU [#1 Exclusion - Arginine A Attempt #20 (Inspired by Pi)],15.2
9,CCCAAAUAGAUCAAAGGAAUUAUACUCGAAGGAGCGUCAUAGUAGGCAGGUAGGUCGCGAGACAUGAGGAUCACCCAUGUAGAGA [sssmullin],51.9
10,AAUUCAGGGUCGGCCGCCACUGGUAUGGCGAGUCCUCGAACUUACAUGAGGAUCACCCAUGUGAACAGGACCGGGACAGCAUGGG [Exclusion Tryptophan B GF 22],233
11,AAAUAGGUAGGAGAUACCAGAUAGGUUAACAUGAGGAUCACCCAUGUGUAUGCACUUAGUGUCCCUUGGCAGCUCCUGGAUCUGG [#19 Same State - Theophylline B],47.1
12,UAUCGGCACUGAAGGAGCGAGUUGACAAACAUGAGGAUCACCCAUGUUAUGGGUUGUUAAUCUCAGGUAGGUCGCAGUUGUCGCA [Same State Arginine B GF 19],334
13,CCACAUGAGGAUCACCCAUGUAUAGUUGAAGGAGCGAUCAUUAGGUCAGGUAGGUCGCAGCACAUGAGGAUCACCCAUGUCGAAA [DOUBLE!!! :-D #3],64.8
14,AUAUUUAACGGAAGGAGCGGGAAAUAAUCAUGAUGACAUGAGGAUCACCCAUGUCUUAAAACCCAGGUAGGUCGCCGAAUAAUAA [Same State - Arginine B],11.1

# Same assay, conditions: Eterna round: R107; input ligand: theophylline 20 uM
row,Sequence,apparent KD of MS2 coat protein [nM]
1,GGUGUAAUUGACUCUUUGUUUUAUUUGUAACGAGGACCGGUACGGCCGCCACUCGAUAUUCACAUGAGGAUCACCCAUGUUAGCU [JR_ExcTryptoA_Sub006],22.5
2,AGCAUUGUAACAGAUACCAGACUUUUAAUGCCUCUAAUUACAUGAGGAUCACCCAUGUUUGUCCCUUGGCAGCUGUUAUGAUGCA [JR_ExcTheophyB_Sub009],174
3,UGUAACAUGAGGAUCACCCAUGUAAGUGAUACCAGAUAAGUAGUAGUCCCUUGGCAGCAUAUUGGGAAAGUGUAUAGUGUAUAUG [Same State - Theophylline A (Freestyle 4)],72.3
4,AUUAUAGUUUAUAACGAAGUUGAUACAGAAGGAGCGGGAGUAAUCUCAGGUAGGUCGCUGAUAAUACAUGAGGAUCACCCAUGUG [#15 Same State - Arginine A],19.4
5,AGUGUCGGAGCGGCCGCCACUAGCACAUCUGGUCGCCAUGGCAACAUGAGGAUCACCCAUGUUGCUAGGACCGGGCUCAAUAUUU [Maengele],10.9
6,UGUAUGUGAUUUGAUACCAGACCAGCUGGUGGUACCUGAGGAUCACCCGGGUAGGUUUGGGUCCCUUGGCAGCAAAUCGCAUACU [SS Theo B #24 Ms8],52.1
7,UCGCCCAGGUAGGAUUGAUGGGAUAUGGAAGGAGCGCUGAUGCCAGCAGGUAGGUCGCCAACGGACAUGAGGAUCACCCAUGUAC [Same State - Arginine A (Freestyle 5)],34.6
8,AGCGACAUGAGGAUCACCCAUGUACAUUCCCGAGGACCGGUACGGCCGCCACUCGAUGGAAGUGGUAGCAGCUUGGAUGGGCCUA [theeternabot_sameState_MS2_Trp_A_23],20
9,UGUCGGCCGCCAGGAAAUGGUGGCCGACAUCGAGGACCGGUACGGCCGCCACUCGGUCGUACAUGAGGAUCACCCAUGUCGGUGA [SameState-Tryptophan_A Attempt #10 (HarryS)],508
10,UAAAACAUGAGGAUCACCCAUGUAAAUGAUACCAGAGUGAUGAUCCUCCCUUGGCAGCAUAACGCUGAUUGGAAACAAUCAGCGA [Mat - Same State Theophlline A - Mod of Eli - D23],144
11,GGAUAUAGGGAACCGUAUCCGAAACCUGAAGGAGCGGCCGAAAGGCCAGGUAGGUCGCGGGAACAUGAGGAUCACCCAUGUAUUC [dancer],71.8
12,GGCACAUAGUCGGCCGCCACUAGUGGGAAAUGGGAGAACAUGAGGAUCACCCAUGUAUAAUAGCCUAGGACCGGGACUAUGUGCC [Elk],227
13,AGUCUUAUAGGAAGGAGCGCAUACUUCACAUGAGGAUCACCCAUGUCAAGGAGUGAGUCAAUGCAGGUAGGUCGCCUAACUAAGA [Same State - Arginine B (Freestyle 10)],112
14,AGCAACAAGUCGGCCGCCACUCAUAUUACAUGAGGAUCACCCAUGUUUACAUCAAGGUCAUAAUAGAGGACCGGGACAGUUGCAU [JR_SSTryptoB_Sub017],39.3

# Reference: the supplement of paper PMC9170038
